Experimental data: the Immune Epitope Database (IEDB)
pIC50, pKd: −log10 of the molar value. Each block holds one sequence with its values, some of them ahead of it.

Tests used:
[1] = biological target: HLA-A*68:02; experiment: IEDB peptide-MHC binding, purified MHC/competitive/radioactivity; filed as Kd, often an IC50 or EC50 that approximates it; ≥ and ≤ were set here for values at or beyond the usual limits of such assays
[2] = biological target: HLA-A*02:06; experiment: as above
[3] = biological target: HLA-B*08:01; experiment: as above
[4] = biological target: HLA-A*24:03; experiment: IEDB peptide-MHC binding, purified MHC/direct/fluorescence; filed as Kd, often an IC50 or EC50 that approximates it; ≥ and ≤ were set here for values at or beyond the usual limits of such assays; conditions: source organism: Mycobacterium tuberculosis variant bovis
[5] = biological target: HLA-B*51:01; experiment: IEDB peptide-MHC binding, purified MHC/competitive/radioactivity; filed as Kd, often an IC50 or EC50 that approximates it; ≥ and ≤ were set here for values at or beyond the usual limits of such assays
[6] = biological target: HLA-B*18:01; experiment: as above
[7] = biological target: HLA-B*45:01; experiment: as above
[8] = biological target: HLA-B*44:03; experiment: as above
[9] = biological target: HLA-B*44:02; experiment: as above
[10] = biological target: HLA-B*40:01; experiment: as above
[11] = biological target: HLA-B*40:02; experiment: as above
[12] = biological target: HLA-A*11:01; experiment: IEDB peptide-MHC binding, purified MHC/competitive/fluorescence; ≥ and ≤ were set here for values at or beyond the usual limits of such assays
[13] = biological target: HLA-A*01:01; experiment: IEDB peptide-MHC binding, purified MHC/competitive/radioactivity; filed as Kd, often an IC50 or EC50 that approximates it; ≥ and ≤ were set here for values at or beyond the usual limits of such assays; conditions: source organism: Dengue virus 3 Martinique/1243/1999
[14] = biological target: HLA-A*26:01; experiment: as above; conditions: source organism: Dengue virus 3 Martinique/1243/1999
[15] = biological target: HLA-B*07:02; experiment: as above
[16] = biological target: HLA-B*35:01; experiment: as above; conditions: source organism: Dengue virus 1 Brazil/97-11/1997
[17] = biological target: HLA-B*51:01; experiment: IEDB peptide-MHC binding, purified MHC/competitive/fluorescence; filed as Kd, often an IC50 or EC50 that approximates it; ≥ and ≤ were set here for values at or beyond the usual limits of such assays; conditions: source organism: Pan troglodytes
[18] = biological target: HLA-A*26:01; experiment: as above; conditions: source organism: Pan troglodytes
[19] = biological target: HLA-B*15:01; experiment: as above; conditions: source organism: Pan troglodytes
[20] = biological target: HLA-B*07:02; experiment: IEDB peptide-MHC binding, purified MHC/direct/fluorescence; filed as Kd, often an IC50 or EC50 that approximates it; ≥ and ≤ were set here for values at or beyond the usual limits of such assays; conditions: source organism: Homo sapiens
[21] = biological target: HLA-A*03:01; experiment: IEDB peptide-MHC binding, purified MHC/competitive/radioactivity; filed as Kd, often an IC50 or EC50 that approximates it; ≥ and ≤ were set here for values at or beyond the usual limits of such assays; conditions: source organism: Dengue virus 2 Peru/IQT2913/1996
[22] = biological target: HLA-A*33:01; experiment: as above; conditions: source organism: Dengue virus 2 Peru/IQT2913/1996
[23] = biological target: HLA-A*31:01; experiment: as above; conditions: source organism: Dengue virus 2 Peru/IQT2913/1996
[24] = biological target: HLA-A*68:01; experiment: as above; conditions: source organism: Dengue virus 2 Peru/IQT2913/1996
[25] = source organism: Dengue virus 1 Brazil/97-11/1997
[26] = source organism: Dengue virus 3 Martinique/1243/1999
[27] = source organism: SARS coronavirus Tor2
[28] = source organism: Vaccinia virus WR
[29] = source organism: Mammarenavirus lassaense
[30] = source organism: Dengue virus 2 Jamaica/1409/1983
[31] = source organism: Dengue virus 4 Philippines/H241/1956
[32] = source organism: Lymphocytic choriomeningitis virus (strain Armstrong)

Sequence: FTVIALFLA
pKd [1, 25]: 6.87
pKd [2, 25]: 8.50

pKd ([1]; source organism: Homo sapiens): 4.87
pKd ([2]; source organism: Homo sapiens): ≤ 4.49
Sequence: QLKDKADFCI

Sequence: IKRRLRTLIL
pKd [3, 26]: 6.73

Sequence: SYYPDQKSL
pKd [4]: 8.08

Sequence: PPFGESYIV
pKd [5, 25]: 5.01

Sequence: GENAVIPKG
pKd [6, 27]: ≤ 4.11
pKd [7, 27]: 6.08
pKd [8, 27]: 5.65
pKd [9, 27]: 5.69
pKd [10, 27]: ≤ 4.12
pKd [11, 27]: 6.04

Sequence: MQSLKFNRA
pKd [3, 28]: 6.51

Sequence: IRANNNRLP
pIC50 [12, 28]: ≤ 3.68

Sequence: DEADLDEILL
pKd [6, 29]: 5.77
pKd [7, 29]: ≤ 4.35
pKd [8, 29]: ≤ 4.57
pKd [9, 29]: ≤ 4.34
pKd [10, 29]: 4.74
pKd [11, 29]: 5.23

Sequence: FSRENSYSGV
pKd [5, 26]: ≤ 4.35

Sequence: PENITTAVK
pIC50 ([12]; source organism: Sudan ebolavirus): ≤ 3.75

Sequence: ETMETLLLL
pKd [13]: 4.94
pKd [1, 26]: 7.76
pKd [14]: 7.02

Sequence: VPNYNMIIM
pKd [15, 25]: 7.27
pKd [5, 25]: 6.06
pKd [16]: 7.87

Sequence: GPLIAGGML
pKd [15, 25]: 6.90

Sequence: PRRCLKPVIL
pKd [3, 25]: 5.57

Sequence: TPRMCTREE
pKd [15, 30]: 5.71

pKd ([1]; source organism: Homo sapiens): 5.43
Sequence: DLTDYLMKI

Sequence: NNSWKFNSE
pKd [3, 28]: 6.89

Sequence: FEHIVYGDF
pKd [6, 27]: 5.90
pKd [7, 27]: ≤ 4.65
pKd [8, 27]: 4.88
pKd [9, 27]: 5.73
pKd [10, 27]: 5.15
pKd [11, 27]: 6.11

Sequence: LVMLLVHYAI
pKd [1, 31]: 5.90
pKd [2, 31]: 6.82

Sequence: AEILPDTTY
pKd [6, 32]: 5.85
pKd [7, 32]: 5.91
pKd [8, 32]: 7.00
pKd [9, 32]: 7.01
pKd [10, 32]: 5.22
pKd [11, 32]: 4.85

pKd [17]: ≤ 4.70
pKd [18]: ≤ 4.70
pKd [19]: ≤ 4.70
pKd [20]: 8.06
Sequence: KVRDRNFQL

Sequence: EVSETQHGTI
pKd [1, 26]: 6.71

Sequence: LLLMRTTWA
pKd [3, 31]: 7.73

Sequence: EAAGIFMTA
pKd [1, 30]: 9.43

Sequence: MTCIAVGMV
pKd [1, 25]: 8.12

Sequence: FEIDKGIYQT
pKd [6, 27]: 5.19
pKd [7, 27]: 5.51
pKd [8, 27]: 4.93
pKd [9, 27]: ≤ 4.25
pKd [10, 27]: 6.13
pKd [11, 27]: 7.33

Sequence: LMWKQITPEL
pKd [3, 30]: 5.91

Sequence: EIAETQHGTI
pKd [1, 30]: 7.00

Sequence: MLINRFTMR
pKd [21]: 7.24
pKd [22]: 7.69
pKd ([3]; source organism: Dengue virus 2 Peru/IQT2913/1996): 6.04
pKd [23]: 8.37
pKd [24]: 7.75
